Laboratory results as given in article PMC10263302.

Molecular target: Complex IV (cytochrome c oxidase complex) of T. gondii (Toxoplasma gondii | Toxoplasma gondii (endogenous in the parasites))
Test: native gel or EMSA

Substance	reduction of the abundance of the complex against the cWT-containing complex (no ATc) [%]
cFLAG-TgApiCox13^H85Q (natural protein)	45
cFLAG-TgApiCox13^H49Q (natural protein)	75
